Tests used:
Experiment in all cases: pull-down binding Z-score (relative to library population); higher = stronger binding
[1] = tested on: TO-3-N3-2 (biotin conjugate); details: RNA library: Library-2
How it was run: (§1)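 Cy5- or Cy3-end-labelled RNA library (1 μg) was heat-folded in phosphate/NaCl/KCl buffer and incubated 60 min at 25 °C with streptavidin beads carrying 100 pmol biotin-conjugated small molecule. After three washes, bound RNA was eluted in hot SDS and hybridised 20 h at 55.5 °C to a DNA barcode microarray. Binding was scored by subtracting a beads-only control, averaging barcoded replicate probes after dropping highest and lowest, and converting to a Z-score against library mean and standard deviation.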

[2] = tested on: TO-N3 (biotin conjugate); details: RNA library: Library-2
How it was run: as §1

[3] = tested on: TO-N3-2 (biotin conjugate); details: RNA library: Library-2
How it was run: as §1

[4] = tested on: G-clamp-N3 (biotin conjugate); details: RNA library: Library-1 (pre-miRNA loops + repeats)
How it was run: as §1

[5] = tested on: TO-3-N3 (biotin conjugate); details: RNA library: Library-2
How it was run: as §1

| Sequence | pull-down binding Z-score [1] | pull-down binding Z-score [2] | pull-down binding Z-score [3] | pull-down binding Z-score [4] | pull-down binding Z-score [5] |
| --- | --- | --- | --- | --- | --- |
| AUGGUUUAGAGUUACACCCUGGGAGUUAACUGU [hsa-let-7c] | 0.565 | 0.437 | 0.0342 | -0.228 | 0.351 |
| AUGUCCCUUUAGUUCAAAGU [hsa-mir-2052] | -0.0713 | -0.283 | -0.324 | -2.06 | -0.246 |
| AUGUCUCAGGUCCCCAGCUGAGUCAA [hsa-mir-6513] | 0.129 | 0.609 | 0.47 | -1.3 | 0.633 |
| AUGUCUGCUGGGGAACCGGGGCU [hsa-mir-4518] | 0.297 | 0.984 | 1.39 | 1.1 | 0.587 |
| AUGUGAUGUCACUGAGGAAAUCACAC [hsa-mir-216b] | -0.272 | -0.124 | -0.00778 | 0.862 | -0.223 |
| AUGUGAUGUGAGCAGAUGGUUCUCACU [hsa-mir-6758] | -0.346 | -0.621 | 0.176 | -0.46 | -0.532 |
| AUGUGAUUGCUGUCCCAAACUCAUGU [hsa-mir-135b] | 0.00564 | -0.126 | -0.0979 | -0.794 | -0.305 |
| AUGUGUUGUGAUGGCACAGCGU [hsa-mir-592] | -0.582 | -0.817 | 0.256 | -0.64 | -0.831 |
| AUGUUCACUUGAUUAAUGGCGAAUAU [hsa-mir-1185-2_1185-1] | -0.39 | -0.89 | -0.673 | 0.337 | -0.629 |
| AUGUUCGCUUCAUUCAUCAUGAAUAA [hsa-mir-655] | 0.089 | 0.385 | -0.299 | -0.248 | 0.297 |
| AUGUUUAUUGUAAAGAUACUUU [hsa-mir-1305] | -0.418 | -0.517 | -0.121 | -0.249 | -0.643 |
| AUUACUUGUGUUCUAUAUAAAGUAUU [hsa-mir-92a-2] | -0.0463 | -0.716 | -0.831 | -0.855 | -0.393 |
| AUUAGACAGAAAAAAGUUAGACACAAAAAAUUGUGUCUAAU [hsa-mir-4759] | 0.561 | 0.136 | -0.525 | -0.0386 | 0.284 |
| AUUAUGUUUUGGACAUAGAAACAUAAC [hsa-mir-5688] | -0.377 | -0.981 | -0.665 | -0.841 | -0.878 |
| AUUCAGACUCAGGU [hsa-mir-921] | -0.0856 | -0.204 | -0.0427 | -0.651 | -0.232 |
| AUUCUGAUGAUCACCUAGCCAGAAU [hsa-mir-5583-2] | 0.566 | 1.45 | 0.317 | -0.301 | 1.52 |
